Laboratory results published in the RNAGym collection of RNA variant scans (doi:10.7554/elife.90254).

B1: LINE1-full (parent)
chain: UACGUAGGUGGUUUUCCCCUGAUAGUGCUAAGGGGGCCUGGAAGUUUGGACUGGGCAGAGCUCAACACAGCGUGGCAAAGUGGCUGUGGCUAGACUGCCUCUCUGGAUUCCUCGUCACUCAGCAGGGCAUCUCUGAGAGAAAUGCC

Variants of: B1
Test: self-cleavage, relative activity (ratio to wild type); higher = more cleavage; in vitro, sequencing; the parent is a self-cleaving ribozyme

| Variant | self-cleavage |
| --- | --- |
| UACGUAGGUGGUUUUCCCCUGAUAAUGCUAAGGGGGCCUGGAAGUUUGGACUGGGCAGAGCUCAACACAGCGUGGUAAAGUGGCUGUGGCUAGACUGCCUCUCUGGAUUCCUCGUCACUCAGCAGGGCAUCUCUGAGAGAAAUGCC | 1.35 |
| UACGUAGGUGGUUUUCCCCUGAUAAUGCUAAGGGGGCCUGGAAGUUUGGACUGGGCAGAGCUCAACACAGCGUGGCGAAGUGGCUGUGGCUAGACUGCCUCUCUGGAUUCCUCGUCACUCAGCAGGGCAUCUCUGAGAGAAAUGCC | 0.92 |
| UACGUAGGUGGUUUUCCCCUGAUAAAGCUAAGGGGGCCUGGAAGUUUGGACUGGGCAGAGCUCAACACAGCGUGGCAAAGUGGCUGUGGCUAGACUGCCUCUCUGGAUUCCUCGUCACUCAGCAGGGCAUCUCUGAGAGAAAUGCC | 1.07 |
| UACGUAGGUGGUUUUCCCCUGAUAAUGCUAAGGGGGCCUGGAAGUUUGGACUGGGCAGAGCUCAACACGGCGUGGCAAAGUGGCUGUGGCUAGACUGCCUCUCUGGAUUCCUCGUCACUCAGCAGGGCAUCUCUGAGAGAAAUGCC | 0.41 |
| UACGUAGGUGGUUUUCCCCUGAUAUUGCUAAGGGGGCCUGGAAGUUUGGACUGGGCAGAGCUCAACACAGCGUGGCAAAGUGGCUGUGGCUAGACUGCCUCUCUGGAUUCCUCAUCACUCAGCAGGGCAUCUCUGAGAGAAAUGCC | 1.13 |
| UACGUAGGUGGUUUUCCCCUGAUACUGCUAAGGGGGCCUGGAAGUUUGGACUGGGCAGAGCUCAACACAGCGUGGCAAAGUGGCUGUGGCUAGACUGCCUCUCUGGAUUCCUCGUCACUCAGCAGGGCAUCUCUGAGAGGAAUGCC | 2.41 |
| UACGUAGGUGGUUUUCCCCUGAUUGUGCUAAGGGGGCCUGGAAGUUUGGACUGGGCAGAGCUCAACACAGCGUGGCAAAGUGGCUGUGGCUAGACUGCCUCUCUGGAUUCCUCGUCACACAGCAGGGCAUCUCUGAGAGAAAUGCC | 1.09 |
| UACGUAGGUGGUUUUCCCCUGAUAUUGCUAAGGGGGCCUGGAAGUUUGGACUGGGCAGGGCUCAACACAGCGUGGCAAAGUGGCUGUGGCUAGACUGCCUCUCUGGAUUCCUCGUCACUCAGCAGGGCAUCUCUGAGAGAAAUGCC | 0.18 |
| UACGUAGGUGGUUUUCCCCUGAUACUGCUAAGGGGGCCUGGAAGUUUGGACUGGGCAGAGCUCAACACAGCGUGGCAAAGUGGCUGUGGCUAGACUGCCUCUCUGGAUUCCUCGUUACUCAGCAGGGCAUCUCUGAGAGAAAUGCC | 1.52 |
| UACGUAGGUGGUUUUCCCCUGAUAUUGCUGAGGGGGCCUGGAAGUUUGGACUGGGCAGAGCUCAACACAGCGUGGCAAAGUGGCUGUGGCUAGACUGCCUCUCUGGAUUCCUCGUCACUCAGCAGGGCAUCUCUGAGAGAAAUGCC | 1.27 |
| UACGUAGGUGGUUUUCCCCUGAUACUGCUAAGGGGGCCUGGAAGUUUGGACUGGGCAGAGCUCAACACGGCGUGGCAAAGUGGCUGUGGCUAGACUGCCUCUCUGGAUUCCUCGUCACUCAGCAGGGCAUCUCUGAGAGAAAUGCC | 0.14 |
| UACGUAGGUGGUUUUCCCCUGAUACUGCUAAGGGGGCCUGGAAGUUUGGACUGGGCAGAGCUCAACACAGCGUGGCAAAGUGGCUGUGGCUAGACUGCCUCUCAGGAUUCCUCGUCACUCAGCAGGGCAUCUCUGAGAGAAAUGCC | 1.91 |
| UACGUAGGUGGUUUUCCCCUGAUUGUGCUAAGGGGGCCUGGAAGUUUGGACUGGGCAGAGCUCAACACAGCGUGGCAAAGUGGCUGUGGCUAGACUGCCUCUCUGGAUUCCUCGUCACUCAGCAGGGCAUCUCUGAGAGAAACGCC | 1.63 |
| UACGUAGGUGGUUUUCCCCUGAUAAUGCUAAGGGGGCCUGGAAGUUUGGACUGGGCAGAGCCCAACACAGCGUGGCAAAGUGGCUGUGGCUAGACUGCCUCUCUGGAUUCCUCGUCACUCAGCAGGGCAUCUCUGAGAGAAAUGCC | 0.11 |
| UACGUAGGUGGUUUUCCCCUGAUAAUGCUAAGGGGGCCUGGAAGUUUGGACUGGGCAGAGCUCAACACAGCGUGGCAAAGUGGCUGCGGCUAGACUGCCUCUCUGGAUUCCUCGUCACUCAGCAGGGCAUCUCUGAGAGAAAUGCC | 0.22 |
| UACGUAGGUGGUUUUCCCCUGAUAAUGCUAAGGGGGCCUGGAAGUUUGGACUGUGCAGAGCUCAACACAGCGUGGCAAAGUGGCUGUGGCUAGACUGCCUCUCUGGAUUCCUCGUCACUCAGCAGGGCAUCUCUGAGAGAAAUGCC | 0.45 |
| UACGUAGGUGGUUUUCCCCUGAUAUUGCUAAGGGGGCCUGGAAGUUUGGACUGGGCAGAGCUCAACACAGCGUGGCAAGGUGGCUGUGGCUAGACUGCCUCUCUGGAUUCCUCGUCACUCAGCAGGGCAUCUCUGAGAGAAAUGCC | 0.77 |
| UACGUAGGUGGUUUUCCCCUGAUAUUGCUAAGGGGGCCUGGAAGUUUGGACUGGGCAGAGCUCAACACAGCGUGGCAGAGUGGCUGUGGCUAGACUGCCUCUCUGGAUUCCUCGUCACUCAGCAGGGCAUCUCUGAGAGAAAUGCC | 0.96 |
| UACGUAGGUGGUUUUCCCCUGAUAAUGCUAAGGGGGCCUGGAAGUUUGGACUGGGCAGAGCUCAACACAGCGUGGCAAAGUGGCUGUGGCUAGACUGCCUCUCUAGAUUCCUCGUCACUCAGCAGGGCAUCUCUGAGAGAAAUGCC | 1.27 |
| UACGUAGGUGGUUUUCCCCUGAUAAUGCUUAGGGGGCCUGGAAGUUUGGACUGGGCAGAGCUCAACACAGCGUGGCAAAGUGGCUGUGGCUAGACUGCCUCUCUGGAUUCCUCGUCACUCAGCAGGGCAUCUCUGAGAGAAAUGCC | 0.7 |

| Variant | self-cleavage |
| --- | --- |
| UACGUAGGUGGUUUUCCCCUGAUAAUGCUAAGGGGGCCUGGAAGUUUGGACUGGGCAGAGCUCAACACAGCGUGGCAAAGUGGCUGUGGCUAGACUGCCCCUCUGGAUUCCUCGUCACUCAGCAGGGCAUCUCUGAGAGAAAUGCC | 1.81 |
| UACGUAGGUGGUUUUCCCCUGAUAUUGCUAAGGGGGCCUGGGAGUUUGGACUGGGCAGAGCUCAACACAGCGUGGCAAAGUGGCUGUGGCUAGACUGCCUCUCUGGAUUCCUCGUCACUCAGCAGGGCAUCUCUGAGAGAAAUGCC | 1.04 |
| UACGUAGGUGGUUUUCCCCUGAUAUUGCUAAGGGGGCCUGGAAGUUUGGACUGGGCAGAGCUCAACACAGCGUGGCAAAGUGGCUGUGGCUAGACUGCCUCUCUGGAUUCCUCGUCACUCAGCAGGGCAUCUCUGAGAGGAAUGCC | 0.7 |
| UACGUAGGUGGUUUUCCCCUGAUUGUGCUAAGGGGGCCUGGAAGUUUGGACUGGGCAGAGCUCAACACAGCGUGGCAAAGUGGCUGUGGCUAGACUGCCUCUCUGGAUUCCUCGUCACUCAGCAGGGCACCUCUGAGAGAAAUGCC | 1.35 |
| UACGUAGGUGGUUUUCCCCUGAUAUUGCUAAGGGGGCCUGGAAGUUUGGACUGGGCAGAGCUCAACACAGCGUGGCAAAGUGGCUGUGGCUAGACUGCCUCUCUGGAUUCCUCGUCACUCAGAAGGGCAUCUCUGAGAGAAAUGCC | 0.95 |
| UACGUAGGUGGUUUUCCCCUGAUAAUGCUAAGGGGGCCUGGAAGUUUGGACUGGGCAGAGCUCACCACAGCGUGGCAAAGUGGCUGUGGCUAGACUGCCUCUCUGGAUUCCUCGUCACUCAGCAGGGCAUCUCUGAGAGAAAUGCC | 0.02 |
| UACGUAGGUGGUUUUCCCCUGAUAAUGCUAAGGGGGCCUGGAAGUUUGGACUGGGCAGAGCUCAACACAGCGUGGCAAAGCGGCUGUGGCUAGACUGCCUCUCUGGAUUCCUCGUCACUCAGCAGGGCAUCUCUGAGAGAAAUGCC | 1.91 |
| UACGUAGGUGGUUUUCCCCUGAUAAUGCUAAGGGGGCCUGGAAGUUUGGACUGGGCAGAGCUCAACACAGCGUGGCAAAGUGGCUGUGGCUAGACUGCCUCUCUGGAUUCCUCGUCACUCAGCAGGGCAUCUCUGAGAGAGAUGCC | 0.96 |
| UACGUAGGUGGUUUUCCCCUGAUACUGCUAAGGGGGCCUGGAAGUUUGGACUGGGCAGAGCUCAACACAGCGUGGCAAAGUGGCUGUGGCUAGACUGGCUCUCUGGAUUCCUCGUCACUCAGCAGGGCAUCUCUGAGAGAAAUGCC | 0.25 |
| UACGUAGGUGGUUUUCCCCUGAUAAUGCUAAGGGGGCCUGGAAGUUUGGACUGGGCAGAGCUCAACACAGCGUGGCAAAGUGGCUGUGGCUAGACUGCCUCUCUGGAUUCCUCGUCACUCAGCAGGGCAUCUCUGAGAGAAGUGCC | 1.35 |
| UACGUAGGUGGUUUUCCCCUGAUAAUGCUAAGGGGGCCUGGAAGUUUGGACUGGGCAGAGCUCAACACAGCGUGGCAAGGUGGCUGUGGCUAGACUGCCUCUCUGGAUUCCUCGUCACUCAGCAGGGCAUCUCUGAGAGAAAUGCC | 0.91 |
| UACGUAGGUGGUUUUCCCCUGAUAAUGCUAAGGGGGCCUGGAAGUUUGGACUGGGCAGAGCUCAACACAGCGUGGCAAAGUGGCUGUGGCUAGACUGCCUCUCUGGAUUCCUCGUCACUCAGCAGGGCAUCUCUGAGAGGAAUGCC | 1.49 |
| UACGUAGGUGGUUUUCCCCUGAUAAUGCUAAGGGGGCCUGGAAGUUUGGACUGGGCAGAGCUCAACACAGCGUGGCAAAGUGGCUGUGGCUAGACUGCCUCUCUGGAUUCCUCGACACUCAGCAGGGCAUCUCUGAGAGAAAUGCC | 1.05 |
| UACGUAGGUGGUUUUCCCCUGAUAAUGCUAAGGGGGCUUGGAAGUUUGGACUGGGCAGAGCUCAACACAGCGUGGCAAAGUGGCUGUGGCUAGACUGCCUCUCUGGAUUCCUCGUCACUCAGCAGGGCAUCUCUGAGAGAAAUGCC | 0.64 |
| UACGUAGGUGGUUUUCCCCUGAUAAUGCUAAGGGGGCCUGGAAGUUUGGACUGGGCAGAGCUCAACACAGCGUGGCAAAGUGGCUGUGGCUAGACCGCCUCUCUGGAUUCCUCGUCACUCAGCAGGGCAUCUCUGAGAGAAAUGCC | 0 |
| UACGUAGGUGGUUUUCCCCUGAUAAUGCUAAGGGGGCCUGGAAGUUUGGACUGGGCAGAGCUCAACACAGCGUGGCAAAGUGGCUGUGGCUAGACUGCCUCUCUGGAUUCCUCGUCACUCAGCAGGGCAUCUCUGAGAGAAAUGCC | 1.21 |
| UACGUAGGUGGUUUUCCCCUGAUACUGCUAAGGGGGCCUGGAAGUUUGGACUGGGCAGAGCUCAACACAGCGUGGCAAAGUGGCUGUGGCUAGACUGCCUCUCUGGAUUCCUCGUCACUCAGCAGGGCAUCUCUGAGAGAAAUGCC | 1.4 |
| UACGUAGGUGGUUUUCCCCUGAUAUUGCUAAGGGGGCCUGGAAGUUUGGACUGGGCAGAGCUCAACACAGCGUGGCAAAGUGGCUGUGGCUAGACUGCCUCUCUGGAUUCCUCGUCACUCAGCAGGGCAUCUCUGAGAGAAAUGCC | 1.45 |
| UACGUAGGUGGUUUUCCCCUGAUACUGCUAAGGGGGCCUGGAAGUUUGGACUGGGCAGAGCUCAACACAGCGUGGCAAAGUGGCUGUGGCUAGACUGCCUCUCUGGAUUCCUCGACACUCAGCAGGGCAUCUCUGAGAGAAAUGCC | 1.02 |
